Laboratory results from paper PMC8998196, “A Second Gamma-Glutamylpolyamine Synthetase, GlnA2, Is Involved in Polyamine Catabolism in Streptomyces coelicolor” (International Journal of Molecular Sciences, 2022).

T1: GlnA3 (His-GlnA3) (Streptomyces coelicolor, UniProt Q9KZC7)
T1 construct: His-tagged GlnA3
T1 sequence (Q9KZC7 1-466): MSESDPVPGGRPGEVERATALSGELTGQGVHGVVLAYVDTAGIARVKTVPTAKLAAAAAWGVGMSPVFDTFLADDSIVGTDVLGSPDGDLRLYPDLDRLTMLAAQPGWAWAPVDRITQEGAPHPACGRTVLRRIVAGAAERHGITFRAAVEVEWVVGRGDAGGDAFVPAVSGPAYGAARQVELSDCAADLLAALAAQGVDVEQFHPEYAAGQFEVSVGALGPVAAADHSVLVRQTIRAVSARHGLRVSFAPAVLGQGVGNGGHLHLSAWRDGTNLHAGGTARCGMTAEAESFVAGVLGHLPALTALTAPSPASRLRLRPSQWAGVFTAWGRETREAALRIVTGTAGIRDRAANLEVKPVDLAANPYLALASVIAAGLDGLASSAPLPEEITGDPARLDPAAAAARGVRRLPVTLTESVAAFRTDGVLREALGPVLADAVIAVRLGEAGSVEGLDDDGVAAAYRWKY

B1: GlnA2 (His-GlnA2) (Streptomyces coelicolor A3(2)) (protein)
chain: MDKQQEFVIRTLEERDIRFVRLWFTDVLGFLKSVAVAPAELEQAFDEGIGFDGSAIEGFARVYESDMIAKPDPSTFQVLPWRAEAPGTARMFCDILMPDGSPSFADPRYVLKRALARTSDLGFTFYTHPEIEFFLLKDKPVDGSVPTPADNSGYFDHTPQNIGMDFRRQAITMLESMGISVEFSHHEGAPGQQEIDLRYADALSTADNVMTFRLVMKQVALEQGLQATFMPKPFSEYPGSGMHTHLSLFEGDRNAFYESGAEYQLSKVGRSFIAGLLRHAAEISAVTNQWVNSYKRIWGGTERTAGAGGEAPSYICWGHNNRSALVRVPMYKPGKTGSARVEVRSIDSGANPYLTYAVLLAAGLKGIEEGYELPPGAEDDVWALSDAERRALGIEPLPQNLGEALALMERSDLVAETLGEHVFDFFLRNKRQEWEEYRSQVTAFELRKSLPVL
notes: dodecamer only modelled

Assays:
GlnA3 (His-GlnA3) = biological target: T1, GlnA3 (His-GlnA3); test: phosphate release (molybdate) modified GS assay; assay type: biochemical; conditions: 50 mM substrate, 10 µg enzyme, co-substrates glutamate and ATP, 30 °C, 5 min
[1] = substrate: NCCCCN; test: phosphate release (molybdate) modified GS assay, Michaelis-Menten fit; assay type: biochemical, Streptomyces coelicolor; conditions: co-substrates glutamate and ATP, Mg2+, 30 °C, 5 min
[2] = substrate: N[C@@H](CCC(=O)O)C(=O)O; test: as above; assay type: biochemical, Streptomyces coelicolor; conditions: polyamine and ATP as co-substrates, Mg2+, 30 °C, 5 min, L form not given
[3] = substrate: Nc1ncnc2c1ncn2[C@@H]1O[C@H](COP(=O)(O)OP(=O)(O)OP(=O)(O)O)[C@@H](O)[C@H]1O; test: as above; assay type: biochemical, Streptomyces coelicolor; conditions: polyamine and glutamate as co-substrates, Mg2+, 30 °C, 5 min

Molecule	phosphate release (molybdate) modified GS assay (GlnA3 (His-GlnA3))	Km [1] [mM]	Km [2] [mM]	Km [3] [mM]
NCCCCNCCCN [spermidine]	GlnA3 demonstrated a significant specificity towards spermidine and spermine, compared with GlnA2	–	–	–
NCCCNCCCCNCCCN [spermine]	GlnA3 demonstrated a significant specificity towards spermidine and spermine, compared with GlnA2	–	–	–
B1	–	0.55 ± 0.1	1.06 ± 0.2	0.13 ± 0.1
